Positions count from the first letter of the chain named. Numbers in names are those of the source.
T1: NOGGIN (NOG) (UniProt Q13253 28-232)
T1 construct: NOGGIN (NOG), BMP antagonist
T1 sequence (looked up): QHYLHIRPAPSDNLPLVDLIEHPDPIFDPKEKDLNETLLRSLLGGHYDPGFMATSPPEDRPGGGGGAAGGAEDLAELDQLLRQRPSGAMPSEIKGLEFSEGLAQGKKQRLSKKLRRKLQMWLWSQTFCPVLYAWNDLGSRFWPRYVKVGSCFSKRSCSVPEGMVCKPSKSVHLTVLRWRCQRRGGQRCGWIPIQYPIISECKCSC

B1: recombinant human GDF5 (Growth and Differentiation Factor 5), wild type (ligand, UniProt P43026 28-501, looked up)
chain: APLATRQGKRPSKNLKARCSRKALHVNFKDMGWDDWIIAPLEYEAFHCEGLCEFPLRSHLEPTNHAVIQTLMNSMDPESTPPTCCVPTRLSPISILFIDSANNVVYKQYEDMVVESCGCR
notes: Growth and Differentiation Factor 5 (GDF5), human, recombinant protein; also called rhGDF5; GDF5^wt; source: recombinant, provided by Biopharm GmbH, dissolved in 10 mM HCl
B2: BMP receptor type IB (BMPR1B) ectodomain (domain or fragment, UniProt O00238 14-126, looked up)
chain: KKEDGESTAPTPRPKVLRCKCHHHCPEDSVNNICSTDGYCFTMIEEDDSGLPVVTSGCLGLEGSDFQCRDTPIPHQRRSIECCTERNECNKDLHPTLPPLKNRDFVDGPIHHR
notes: BMP receptor type IB (BMPR1B), ectodomain
B3: recombinant human GDF5 variant W414R (ligand, UniProt P43026 28-501, looked up)
chain: B1 chain with W33R
notes: Growth and Differentiation Factor 5 (GDF5), human, recombinant protein with the patient mutation p.W414R; The mutation was found in a family with SYNS2 and BDA1 (c.T1240C); also called rhGDF5^W414R; GDF5^W414R; source: recombinant, provided by Biopharm GmbH, dissolved in 10 mM HCl

Assays:
Test in all cases: SPR; BIA2000 system (Biacore); NOG and ectodomains of BMPR1A and BMPR1B immobilised, GDF5 proteins as analyte; apparent KD; mean of two experiments with at least six analyte concentrations
Conditions in all cases: both partners purified
NOGGIN (NOG) = target: T1, NOGGIN (NOG)
[1] = target: B3
[2] = target: T2, BMP receptor type IA (BMPR1A) ectodomain (UniProt P36894 24-152)
T2 construct: BMP receptor type IA (BMPR1A), ectodomain
T2 sequence (P36894 24-152): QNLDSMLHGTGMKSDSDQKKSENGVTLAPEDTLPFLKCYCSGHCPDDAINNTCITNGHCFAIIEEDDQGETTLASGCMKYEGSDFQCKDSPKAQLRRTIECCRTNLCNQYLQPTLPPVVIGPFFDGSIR

| Kd (NOGGIN (NOG)) [µM] | Kd [1] [µM] | Kd [2] [µM] | Binder |
| --- | --- | --- | --- |
| 0.002 | – | – | B1 |
| – | 0.0033 | – | B2 |
| 0.0255 | – | 0.124 | B3 |

Source: article PMC3789827, “A GDF5 Point Mutation Strikes Twice - Causing BDA1 and SYNS2” (PLoS Genetics, 2013)
